{
  "source": "patent US20090252683A1",
  "about": "(Amgen, published 2009)",
  "binders": {"B1": {"name": "CAIX HL × SEQ ID NO. 170 (bispecific antibody)", "chain": "DVKLVESGGGLVKLGGSLKLSCAASGFTFSNYYMSWVRQTPEKRLELVAAINSDGGITYYLDTVKGRFTISRDNAKNTLYLQMSSLKSEDTALFYCARHRSGYFSMDYWGQGTSVTVSSGGGGSGGGGSGGGGSDIVMTQSQRFMSTTVGDRVSITCKASQNVVSAVAWYQQKPGQSPKLLIYSASNRYTGVPDRFTGSGSGTDFTLTISNMQSEDLADFFCQQYSNYPWTFGGGTKLEIKSGGGGSEVQLVESGGGLVQPGGSLKLSCAASGFTFNTYAMNWVRQAPGKGLEWVARIRSKYNNYATYYADSVKDRFTISRDDSKNTAYLQMNNLKTEDTAVYYCVRHGNFGNSYVSWFAYWGQGTLVTVSSGGGGSGGGGSGGGGSQTVVTQEPSLTVSPGGTVTLTCRSSTGAVTTSNYANWVQQKPGQAPRGLIGGTNKRAPGTPARFSGSLLGGKAALTLSGVQPEDEAEYYCALWYSNLWVFGGGTKLTVLHHHHHH", "notes": "the appendix prints the entry with HHHHHH and then *VD at its end"}, "B2": {"name": "CAIX HL × SEQ ID NO. 194 (bispecific antibody)", "chain": "DVKLVESGGGLVKLGGSLKLSCAASGFTFSNYYMSWVRQTPEKRLELVAAINSDGGITYYLDTVKGRFTISRDNAKNTLYLQMSSLKSEDTALFYCARHRSGYFSMDYWGQGTSVTVSSGGGGSGGGGSGGGGSDIVMTQSQRFMSTTVGDRVSITCKASQNVVSAVAWYQQKPGQSPKLLIYSASNRYTGVPDRFTGSGSGTDFTLTISNMQSEDLADFFCQQYSNYPWTFGGGTKLEIKSGGGGSQTVVTQEPSLTVSPGGTVTLTCRSSTGAVTTSNYANWVQQKPGQAPRGLIGGTNKRAPGTPARFSGSLLGGKAALTLSGVQPEDEAEYYCALWYSNLWVFGGGTKLTVLGGGGSGGGGSGGGGSEVQLVESGGGLVQPGGSLKLSCAASGFTFNTYAMNWVRQAPGKGLEWVARIRSKYNNYATYYADSVKDRFTISRDDSKNTAYLQMNNLKTEDTAVYYCVRHGNFGNSYVSWFAYWGQGTLVTVSSHHHHHH", "notes": "as for B1"}, "B3": {"name": "5-10LH×SEQ ID NO. 12 bispecific single chain antibody (bispecific antibody)", "chain": "ELVMTQSPSSLTVTAGEKVTMSCKSSQSLLNSGNQKNYLTWYQQKPGQPPKLLIYWASTRESGVPDRFTGSGSGTDFTLTISSVQAEDLAVYYCQNDYSYPLTFGAGTKLEIKGGGGSGGGGSGGGGSEVQLLEQSGAELVRPGTSVKISCKASGYAFTNYWLGWVKQRPGHGLEWIGDIFPGSGNIHYNEKFKGKATLTADKSSSTAYMQLSSLTFEDSAVYFCARLRNWDEPMDYWGQGTTVTVSSGGGGSQAVVTQESALTTSPGETVTLTCRSSTGAVTTSNYANWVQEKPDHLFTGLIGGTNKRAPGVPARFSGSLIGDKAALTITGAQTEDEAIYFCALWYSNLWVFGGGTKLTVLGGGGSGGGGSGGGGSEVKLLESGGGLVQPKGSLKLSCAASGFTFNTYAMNWVRQAPGKGLEWVARIRSKYNNYATYYADSVKDRFTISRDDSQSILYLQMNNLKTEDTAMYYCVRHGNFGNSYVSWFAYWGQGTLVTVSAHHHHHH"}, "B4": {"name": "CAIX LH × SEQ ID NO. 170 (bispecific antibody)", "chain": "DIVMTQSQRFMSTTVGDRVSITCKASQNVVSAVAWYQQKPGQSPKLLIYSASNRYTGVPDRFTGSGSGTDFTLTISNMQSEDLADFFCQQYSNYPWTFGGGTKLEIKGGGGSGGGGSGGGGSDVKLVESGGGLVKLGGSLKLSCAASGFTFSNYYMSWVRQTPEKRLELVAAINSDGGITYYLDTVKGRFTISRDNAKNTLYLQMSSLKSEDTALFYCARHRSGYFSMDYWGQGTSVTVSSSGGGGSEVQLVESGGGLVQPGGSLKLSCAASGFTFNTYAMNWVRQAPGKGLEWVARIRSKYNNYATYYADSVKDRFTISRDDSKNTAYLQMNNLKTEDTAVYYCVRHGNFGNSYVSWFAYWGQGTLVTVSSGGGGSGGGGSGGGGSQTVVTQEPSLTVSPGGTVTLTCRSSTGAVTTSNYANWVQQKPGQAPRGLIGGTNKRAPGTPARFSGSLLGGKAALTLSGVQPEDEAEYYCALWYSNLWVFGGGTKLTVLHHHHHH", "notes": "as for B1"}, "B5": {"name": "5-10LH×SEQ ID NO. 14 bispecific single chain antibody (bispecific antibody)", "chain": "ELVMTQSPSSLTVTAGEKVTMSCKSSQSLLNSGNQKNYLTWYQQKPGQPPKLLIYWASTRESGVPDRFTGSGSGTDFTLTISSVQAEDLAVYYCQNDYSYPLTFGAGTKLEIKGGGGSGGGGSGGGGSEVQLLEQSGAELVRPGTSVKISCKASGYAFTNYWLGWVKQRPGHGLEWIGDIFPGSGNIHYNEKFKGKATLTADKSSSTAYMQLSSLTFEDSAVYFCARLRNWDEPMDYWGQGTTVTVSSGGGGSQVQLQQSGAELARPGASVKMSCKASGYTFTRSTMHWVKQRPGQGLEWIGYINPSSAYTNYNQKFKDKATLTADKSSSTAYMQLSSLTSEDSAVYYCASPQVHYDYNGFPYWGQGTLVTVSAGGGGSGGGGSGGGGSQVVLTQSPAIMSAFPGEKVTMTCSASSSVSYMNWYQQKSGTSPKRWIYDSSKLASGVPARFSGSGSGTSYSLTISSMETEDAATYYCQQWSRNPPTFGGGTKLQITHHHHHH"}, "B6": {"name": "cross-species specific anti-CD3 antibody (murine IgG1 comprising the VH chain shown in SEQ ID NO. 110 and the VL chain shown in SEQ ID NO. 168) (antibody, V domains shown)", "VH": "EVQLLESGGGLVQPGGSLKLSCAASGFTFNTYAMNWVRQAPGKGLEWVARIRSKYNNYATYYADSVKDRFTISRDDSKNTAYLQMNNLKTEDTAVYYCVRHGNFGNSYVSWFAYWGQGTLVTVSS", "VL": "ELVVTQEPSLTVSPGGTVTLTCRSSTGAVTTSNYANWVQQKPGQAPRGLIGGTNKRAPGTPARFSGSLLGGKAALTLSGVQPEDEAEYYCALWYSNLWVFGGGTKLTVL", "notes": "full IgG with a murine gamma1 heavy chain and a kappa light chain; also called human-like cross-species specific anti-CD3 antibody; cross-species specific anti-CD3 IgG1 antibody"}},
  "key": {"[1]": {"target": "T1, human CAIX antigen on A549 cells (human, UniProt Q16790 38-459)", "test": "FACS, A549 cells, 1 µg/ml purified protein (FIG. 27)"}, "[2]": {"target": "T1, human CAIX antigen on A549 cells", "test": "FACS, A549 cells, 1 µg/ml purified protein (FIG. 26)", "method": "FIG. 26: FACS binding analysis of cross-species specific bispecific single chain construct CAIX HL×SEQ ID NO. 194 to HPB-ALL (human CD3+), cynomolgus PBMC (cynomolgus CD3+), A549 (human CAIX+) and CYNOM-KI (cynomolgus CAIX+) cells, respectively. The FACS staining was performed as described in Example 23. The thick line represents cells incubated with 1 μg/ml purified monomeric protein that were subsequently incubated with the anti-his antibody and the PE labeled detection antibody. The thin histogram line reflects the negative control: cells only incubated with the anti-his antibody and the detection antibody.\nIn order to test the functionality of the cross-species specific bispecific antibody constructs with regard to binding capability to human and cynomolgus EGFR and CD3, respectively, a FACS analysis was performed. For this purpose the EGFR positive epidermoid carcinoma A431 cells (ATCC, CRL-1555) and CD3 positive human T cell leukemia cell line HPB-ALL (DSMZ, Braunschweig, ACC483) were used to check the binding to human antigens. […] The cells were washed twice in PBS and binding of the construct was detected with an unlabeled murine Penta His antibody (diluted 1:20 in 50 μl PBS with 2% FCS; Qiagen; Order No. 34660). After washing, bound anti His antibodies were detected with an Fc gamma-specific antibody (Dianova) conjugated to phycoerythrin, diluted 1:100 in 50 μl PBS with 2% FCS. […]"}, "[3]": {"target": "T2, human EpCAM antigen on Kato III cells or human EpCAM transfected CHO cells (human, UniProt P16422 24-265)", "T2 sequence": "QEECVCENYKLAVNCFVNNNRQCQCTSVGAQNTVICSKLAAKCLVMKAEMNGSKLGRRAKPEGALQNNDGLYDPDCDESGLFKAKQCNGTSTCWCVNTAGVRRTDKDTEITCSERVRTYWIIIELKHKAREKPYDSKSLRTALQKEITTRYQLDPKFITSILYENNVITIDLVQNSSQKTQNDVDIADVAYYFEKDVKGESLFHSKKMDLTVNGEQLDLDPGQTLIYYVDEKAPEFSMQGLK", "test": "cell-based or functional assay"}, "[4]": {"target": "cynomolgus CD3 antigen on cynomolgus PBMC / macaque T cells (Macaca fascicularis (cynomolgus), UniProt Q95LI5 22-117; Q95LI7 23-110; Q95LI8 22-103)", "sequence (Q95LI5 22-117, chain 1 of 3)": "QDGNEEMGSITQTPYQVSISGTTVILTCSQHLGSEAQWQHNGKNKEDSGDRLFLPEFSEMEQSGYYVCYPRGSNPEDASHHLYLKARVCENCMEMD", "sequence (Q95LI7 23-110, chain 2 of 3)": "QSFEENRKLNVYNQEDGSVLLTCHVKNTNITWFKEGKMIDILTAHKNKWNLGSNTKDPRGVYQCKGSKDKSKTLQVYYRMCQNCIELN", "sequence (Q95LI8 22-103, chain 3 of 3)": "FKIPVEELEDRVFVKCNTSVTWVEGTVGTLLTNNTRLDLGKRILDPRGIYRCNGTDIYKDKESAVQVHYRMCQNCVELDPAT", "test": "cell-based or functional assay"}, "[5]": {"target": "T1, human CAIX antigen on A549 cells", "test": "FACS, A549 cells, 1 µg/ml purified protein (FIG. 28)"}, "[6]": {"target": "T3, biotin-linker-EFSELEQSGYYVC (human, reading uncertain; also: short linker, not given here, printed as biotin-linker-EFSELEQSGYYVC)", "T3 construct": "also called 13mer peptide of human CD3 epsilon, biotinylated N-terminally; peptide (1)", "T3 peptide": "{Biotin-linker}-EFSELEQSGYYVC", "test": "dot blot, 75 µg peptide on nitrocellulose, 3 µg/ml antibody", "from_the_text": "(§1) To verify the epitope of the human-like cross-species specific anti-CD3 antibody fragment described in Example 16 on human CD3 epsilon, the identified binding region as determined in Experiment 18 was further analyzed by a dot-blotting assay using a 13mer peptide covering the defined binding area of amino acid residues “FSELE” on human CD3 epsilon. This peptide comprises the amino acid sequence “[…]” (SEQ ID NO. 195) of human CD3 epsilon. The peptide exists in two forms and is either biotinylated N- or C-terminally. In case of the N-terminal labelling, a short linker connects the peptide with the biotin. As described in Example 18, the antibody fragment was converted to a murine IgG format with a murine gammal heavy chain comprising the VH region as shown in SEQ ID NO. 110 and a kappa light chain comprising the VL region as shown in SEQ ID NO. 168. The dot blotting was performed as follows. The Minifold I Spot Blot System from Schleicher & Schuell was used for immobilizing the peptides on a nitrocellulose membrane (Protran BA 85, 0.45 μm). 75 μg of each peptide in 100 μl TBS were filtered through the membrane using vacuum. After the filtration step the membrane was blocked with 1×TBS/1% (w/v) blocking reagent (BM Chemiluminescence Blotting Substrate (POD) of Roche Diagnostics GmbH) for 2 h. […]"}, "[7]": {"target": "T4, EFSELEQSGYYVC-biotin (human)", "T4 construct": "also called 13mer peptide of human CD3 epsilon, biotinylated C-terminally; peptide (2)", "T4 peptide": "EFSELEQSGYYVC-biotin", "test": "dot blot, 75 µg peptide on nitrocellulose, 3 µg/ml antibody", "from_the_text": "as §1"}},
  "note": "No end group written: not given here. *: point of attachment. Biotin = O=C1N[C@H]2[C@H](CS[C@H]2CCCCC(=O)*)N1; linker = not defined here",
  "data": [
    {"binder": "B1", "values": [
      {"measurement": "binding result", "setting": "[1]", "value": "binds"}
    ]},
    {"binder": "B2", "values": [
      {"measurement": "binding result", "setting": "[2]", "value": "binds"}
    ]},
    {"binder": "B3", "values": [
      {"measurement": "EC50 (half maximal killing), FACS-based cytotoxicity, Kato III target cells, human PBMC effector cells", "setting": "[3]", "value": 0.0015, "unit": "ng/mL"},
      {"measurement": "EC50 (half maximal killing), FACS-based cytotoxicity, Kato III target cells, cynomolgus PBMC effector cells", "setting": "[4]", "value": 0.069, "unit": "ng/mL"}
    ]},
    {"binder": "B4", "values": [
      {"measurement": "binding result", "setting": "[5]", "value": "binds"}
    ]},
    {"binder": "B5", "values": [
      {"measurement": "EC50 (half maximal killing), FACS-based cytotoxicity, Kato III target cells, human PBMC effector cells", "setting": "[3]", "value": 0.0013, "unit": "ng/mL"},
      {"measurement": "EC50 (half maximal killing), FACS-based cytotoxicity, Kato III target cells, cynomolgus PBMC effector cells", "setting": "[4]", "value": 0.087, "unit": "ng/mL"}
    ]},
    {"binder": "B6", "values": [
      {"measurement": "binding result", "setting": "[6]", "value": "binds"},
      {"measurement": "binding result", "setting": "[7]", "value": "binds"}
    ]}
  ]
}
